According to the RNAGym collection of RNA variant scans (doi:10.1073/pnas.2313332121):

B1: TPR t1 (parent)
chain: GACCAAUCUGCCCUCAGAGCUCGAGAACAUCUUCGGAUGCAGAGGAGGCAGGCUUCGGUGGCGCGAUAGCGCCAACGUCCUCAACCUCCAAUGCAUCCCACCACAUGAUGAUGCCUGAAGAGCCUUGGUUUUUUG

Variants of: B1
Test: polymerase ribozyme fitness, log enrichment relative to wild type (log ratio); higher = more active; in vitro selection for triplet polymerase activity
How it was run: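 A single round of triplicate in vitro selection, including frozen incubation at −7 °C, was applied to PCR-built, transcribed mutant libraries of each subunit of a heterodimeric triplet polymerase ribozyme. Illumina sequencing of input and output libraries retained genotypes with ≥10 input reads and ≥1 read per output. Fitness is the base-2 logarithm of genotype enrichment divided by wild-type enrichment, from inverse-variance-weighted replicate averages.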

**Q.** For GACCAAUCUGCCCUCAGAGAUCGAGAACAUCUUCGGAUGCAGAGGAGGCAGGCUUCGGUGGCGCGAUAGCGCCAACGUCCUCAACCUCCAAUGCAUCCCACCACAUGAUGAUGCGUGAAGAGCCUUGGUUUUUUG, which “polymerase ribozyme fitness (log ratio)” value is on record?
**A.** Its value is -4.5.

**Q.** For GACCAAUCUGCCCUCAGAGAUCCAGAACAUCUCCGGAUGCAGAGGAGGCAGGCUUCGGUGGUGCGAUAGCGCCAACGUCCUCAACCUCCAAUGCAUCCCACCACAAGCUGAUGCCUCAAGAGCCUUGGUUUUUUG, which “polymerase ribozyme fitness (log ratio)” value is on record?
**A.** The value was -8.64.

**Q.** For GACCAAUCUGCCCUCAGAGAUCGAGAACAUCUUCGGAUGCAGAGGAGGCAGGCUUCGGUGGCGCGAUAGCGCCAACGUCCUCAACAUCCAAUGCAUCCCACCACAUGAUGACGCCUAAAGAGCCUUGGUUUUUUG, which “polymerase ribozyme fitness (log ratio)” value is on record?
**A.** The value was -5.64.

**Q.** Which “polymerase ribozyme fitness (log ratio)” value does the source give for GACCAAUCUGCCCUCAGAGAUCGAGAACAUCUUCGGAUGCAGAGGAGGCAGGCUUCGGUGGCGCGAUAGCGCCAACGUCCUCAACCUCCAAUGCAUCCCACCAAAUGAUGAUGCCUGAAGAGGCUUGGUUUUUUG here?
**A.** The value was -4.45.

**Q.** For GACCAAUCUGCCCUCAGAGAUCGAGAACAUCUUCGGAUGCAGAGGAGGCAGGCUUCGGUGGCGCGAUAGUGCCAAGGUCCUCAACCUCCAAUGCAUCCCACCACAUGAUGAUGCCUGAAGAGCCUUGGUUUUUUG, which “polymerase ribozyme fitness (log ratio)” value is on record?
**A.** Its value is -3.5.

**Q.** With GACCAAUCUGCCCUCAGAGAUCGAGAACAUCUUCGGAUGCAGAGGAGGCAGGCUUCGGUGGCGCGAUAGCGCCAACGUCCUCAACCUCCAAUGCAUACCACCACAUGAUGAUGCCUGAAGAGCCUUGGUUUUUUG as the variant, how does the “polymerase ribozyme fitness (log ratio)” value read?
**A.** The value was -5.7.

**Q.** With GACCAAUCUGCCCUCAGAGAUCGAGAACAUCUUCGAAUGCAGAGGAGGCAGGCUUCGGUGGCGCGAUAGCGCCAACGUCCUCAACCUCCAAUGCAUCCCACCACAUGAUGAUGCCUGAAGAGCCUUGGUUUUUUG as the variant, how does the “polymerase ribozyme fitness (log ratio)” value read?
**A.** Its value is -4.23.

**Q.** Which “polymerase ribozyme fitness (log ratio)” value does the source give for GACCAAUCUGCCCUCAGAGAUCGAGAACAUCUUCUGAUGCAGAGGAGGCAGGCUUCGGUGGCGCGAUAGCGCCAACGUCCUCAACCUCCAAUGCAUCCCUCCACAUGAUGAUGAUUGAAGAGCCUUGGUCUUUUG here?
**A.** The value was -6.44.

**Q.** For GACCAAUCUGCCCUCAGAGAUCGAGAACAUCUUCGGAUGCAGAGGAGGCAGGCUUCGGUGGCGCGAUAGCGCCAACGUUCUCAACCUCCAAUGCAUUCCACCACAUGAUGAUGCCUGAAGAGCAUUCGUUUUUUG, which “polymerase ribozyme fitness (log ratio)” value is on record?
**A.** Its value is -2.63.

**Q.** For GACCAAUCUGCCCUCAGAGAUCGAGAACAUCUUCGGAUGCAGAGGAGGCAGGCUUCGGUGGCGCGAUAGCGCCAACGUCCUCAACGUCUAAUGCAUCCCACCACAUGAUGAUGCCUGAUGAGCCUUGGUUUUUUG, which “polymerase ribozyme fitness (log ratio)” value is on record?
**A.** The value was -6.11.

**Q.** For GACCAAUCUGCCCUCAGAGAUCGAGAACAUCUUCGGAUGCAGAGGAGGCAGGCUUCGGUGGCGCGAUAGCGCCAACGUCCUCAACCUCCAAUGCAUCCCACCACAUGAUGAUGCCUGAAGAGCGUUGGUUUUUUG, which “polymerase ribozyme fitness (log ratio)” value is on record?
**A.** Its value is -0.976.

**Q.** With GACCAAUCUGCCCUCAGAGAUCGAGAACAUCUUCGGAUGCAGAGGAGGCAGGCUUCGGUGGCGCGAUAGGGCCAACGUCCUCAACCUCCAAUGCAUCCCACCACAUGAUGAUGCCUGAAGAGCCUUGGUUUUUUG as the variant, how does the “polymerase ribozyme fitness (log ratio)” value read?
**A.** The value was -5.59.

**Q.** Which “polymerase ribozyme fitness (log ratio)” value does the source give for GACCAAUCUGCCCUCAGAGAUCGAGAACAUCUUCGGAUGCAGAGGAGGCAGGCUUCGGUGGCGCGAUAGCGGCAACGUCCUCAACCUCCAAUGCUUCCCACCACAUGAUGAUCCCUGAAGAGCCUUGGUUUUUUG here?
**A.** Its value is -6.92.

**Q.** Which “polymerase ribozyme fitness (log ratio)” value does the source give for GACCAAUCUGCCCUCAGAGAUCGAGAACAUCUUCGGAUGCAGAGGAGGCAGGCUUCGGUGGCGCGAUAGCGCCAACGUUCUCAACCUCCAAUGCAUCCCACCACAUGAUGAUGCCUGAAGAGCCUUGGUUUUUUG here?
**A.** The value was -2.47.

**Q.** For GACCAAUCUGCCCUCAGAGAUCGAGAACAUCUUCGGAUACAGAGGAGGCAGGCUUCGGUGGCGCGAUAGCGCCAACGUCUUCAACCUCCACUGCAUCCCACCACAUGAUGAUGCCUGAAGAGCCUUGGUUUUUUG, which “polymerase ribozyme fitness (log ratio)” value is on record?
**A.** The value was -6.34.

**Q.** Which “polymerase ribozyme fitness (log ratio)” value does the source give for GACCAAUCUGCCCUCAGAGAUCGAGAACAUCUUCGGAUGCAGAGGAGGCAGGCUUCGGUGGCGCGAUAGCGGCAUCGUCCUCAAACUCCAAUGCAUCCCACCACAUGAUUAUGCCUGAAGAGCCUUGGUUUUUUG here?
**A.** The value was -5.51.

**Q.** For GACCAAUCUGCCCUCAGAGAUCGAGAACAUCUUCGGAUGCAGAGGAGGCAGGCUUCGGUGGCGCGAUAGCGCUAACGUCCUCAACCUCCAAUGCAUUCCACCACAUGAUGAUGCCUGAAGCGCCUUGGUUUUUUG, which “polymerase ribozyme fitness (log ratio)” value is on record?
**A.** The value was -1.59.

**Q.** For GACCAAUCUGCCCUCAGAGAUCGAGAACAUCUUCGGAUGCAGAGGAGGCAGGCUUCGGUGGCGCGAUAGCGCCAACGUCCUUAACCGCCAAUGCAUCCCACAACAUGAUGAUGCCUGAAGAGCCUUGGUUUUUUG, which “polymerase ribozyme fitness (log ratio)” value is on record?
**A.** Its value is -4.69.

**Q.** With GACCAAUCUGCCCUCAGAGAUCGAGAACAUCUUCGGAUGCAGAGGAGGCAGGCUUCGGUGGCGCGAUAGCGGCAACGUCCACAACCUCCAAUGCAUCCCACCACAUGAAGAUGCCUGCAGAACCUUGGUUUUUUG as the variant, how does the “polymerase ribozyme fitness (log ratio)” value read?
**A.** Its value is -5.92.

**Q.** With GACCAAUCUGCCCUCAGAGAUCGAGAACAUCUUCGGAUGCAGAGGAGGCAGGCUUCGGUGGCGCGAUAGCGCCAACGUCCUCAACAUCCAAUGCAUCCCACCACAUGAUGAAGCCUGAAGAGCCGGGGUUUUUUG as the variant, how does the “polymerase ribozyme fitness (log ratio)” value read?
**A.** Its value is -1.97.

**Q.** Which “polymerase ribozyme fitness (log ratio)” value does the source give for GACCAAUCUGCCCUCAGAGAUCGAGAACAUCUUCGGAUGCAGAGGAGGCAGGCUUCGGUGGCGCGAUAGCGCCAACGUACUCAACCUCCAAUGCAUCCCACCACAUGAUGAUGCCUGAAGAGCCUUGGUUAUUUG here?
**A.** The value was -3.6.
